15 molecules from patent publication US20250263466A1 (VIR BIOTECHNOLOGY, published 2025) can be followed below.

The target in assay [1] is T1, MERS-CoV S protein (London1/2012) expressed on ExpiCHO cells (MERS-CoV, UniProt K9N5Q8 18-1353).
T1 sequence: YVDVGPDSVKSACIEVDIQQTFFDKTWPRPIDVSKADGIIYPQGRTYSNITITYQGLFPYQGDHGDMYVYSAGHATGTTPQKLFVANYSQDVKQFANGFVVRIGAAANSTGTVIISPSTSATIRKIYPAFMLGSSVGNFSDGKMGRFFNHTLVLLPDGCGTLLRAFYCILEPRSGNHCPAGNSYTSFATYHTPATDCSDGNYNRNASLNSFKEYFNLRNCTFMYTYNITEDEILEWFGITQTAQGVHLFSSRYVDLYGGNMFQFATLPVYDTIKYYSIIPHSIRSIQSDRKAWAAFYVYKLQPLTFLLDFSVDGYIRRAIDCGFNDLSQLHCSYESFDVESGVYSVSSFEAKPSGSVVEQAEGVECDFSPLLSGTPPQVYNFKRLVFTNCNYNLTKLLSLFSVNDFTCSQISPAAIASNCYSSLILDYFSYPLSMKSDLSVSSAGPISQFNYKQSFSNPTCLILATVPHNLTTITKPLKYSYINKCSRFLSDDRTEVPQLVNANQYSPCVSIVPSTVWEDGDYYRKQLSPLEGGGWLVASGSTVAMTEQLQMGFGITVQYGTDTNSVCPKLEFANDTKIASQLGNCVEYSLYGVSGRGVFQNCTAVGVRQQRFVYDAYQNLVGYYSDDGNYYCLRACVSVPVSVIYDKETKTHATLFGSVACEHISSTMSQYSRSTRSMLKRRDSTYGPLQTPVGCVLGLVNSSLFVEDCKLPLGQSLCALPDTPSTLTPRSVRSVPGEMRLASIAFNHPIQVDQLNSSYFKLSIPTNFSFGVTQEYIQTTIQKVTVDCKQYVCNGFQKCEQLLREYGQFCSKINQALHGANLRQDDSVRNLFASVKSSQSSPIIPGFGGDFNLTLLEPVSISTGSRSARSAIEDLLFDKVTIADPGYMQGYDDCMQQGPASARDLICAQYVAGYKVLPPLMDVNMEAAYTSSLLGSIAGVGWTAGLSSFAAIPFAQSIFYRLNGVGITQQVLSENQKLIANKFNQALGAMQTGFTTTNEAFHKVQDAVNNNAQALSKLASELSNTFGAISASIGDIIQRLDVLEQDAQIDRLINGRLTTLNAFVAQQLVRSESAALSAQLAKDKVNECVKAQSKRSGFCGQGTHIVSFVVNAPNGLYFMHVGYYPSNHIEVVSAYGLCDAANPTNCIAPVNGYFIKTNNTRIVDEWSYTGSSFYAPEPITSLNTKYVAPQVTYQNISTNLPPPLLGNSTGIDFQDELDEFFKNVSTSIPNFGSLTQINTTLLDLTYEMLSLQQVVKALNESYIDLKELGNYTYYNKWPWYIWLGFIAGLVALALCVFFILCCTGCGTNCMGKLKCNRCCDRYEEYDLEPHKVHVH
In words: flow cytometry on ExpiCHO cells transfected with MERS-CoV S.

The target in assay [2] is SARS-CoV S protein (Urbani strain) expressed on ExpiCHO cells (SARS-CoV, UniProt P59594 14-1255). In words: flow cytometry on ExpiCHO cells transfected with SARS-CoV S.

B1: nCoV-6 mAb (antibody, V domains shown)
VH: QVTLKESGPVLVKPTETLTLTCTVSVFSLSNARMGVSWIRQPPGKALEWLAHIFSSDQKSYSTSLKSRLTISKDTSKSQVVLTMTNMDPEDTGTYYCARINTAAYDYDSTTFDIWGQGTMVTVSS
VL: DIQMTQSPSSLSASVGDRVTITCRASQTISNYLNWYQQKPGKAPKLLLYAASSLQSGVPSRFSGSGSGTDFTLTISSLQLEDFATYYCQQSYSTPPTFGGGTKVEIK
B1: the binding result is reported as “no binding (tested: 10 µg/ml)” in assay [1] and “binds” in assay [2].

B2: nCoV-8 mAb (antibody, V domains shown)
VH: EVLLVESGGGLVQPGRSLRLSCVVSGFTFDYYAMHWVRQAPGKGLEWVSGISWNSDNTDYADSVKGRFTISRDNAKNSLYLQMNSLKTEDTALYYCAKDISLVFWSVNPPRNGMDVWGQGTTVTVSS
VL: DIQMTQSPSSLSASVGDRVTITCRASQSIRSYLNWYQQKPGKAPNLLIYTASSLQSGVPSRFSGSGSGTDFTLTISSLQPEDFATYYCQQSYSSPLTFGGGTKVEIK
On to B2, for which the figures for the binding result in assay [1] and in assay [2] were “no binding (tested: 1.5 µg/ml)” and “binds”, respectively.

B3: nCoV-14 mAb (antibody, V domains shown)
VH: QVQLVHSGAEVKKPGASVRVSCKASGYTYTAYYIHWLRQAPGQGLEWMGWINADNGDTHSVQKFQGRVTMTRDTSINTAYLEVSRLKSDDTAVYYCARGDVPVGTGWVFDFWGQGTLVTVSS
VL: DIQMTQSPSSLSASVGDSVTISCRASQTINNFLNWYQQKPGKAPNLLIYGAYNLQSGVPSRFSGSGSGTDFTLTISSLQPEDVAIYYCQQSLSMVTFGQGTRLDIK
Consider B3, for which the values for the binding result in assay [1] and in assay [2] were “no binding (tested: 10 µg/ml)” and “binds”, respectively.

B4: nCoV-16 mAb (antibody, V domains shown)
VH: QVQLVESGGGVVQPGRSLRLSCAASGFTFSSYGMHWVRQAPGKGLEWVAFISYDGSNIQYADSVQGRFTISRDNSKTTLYLQMNSLRVEDTAMYYCAKDLFGYCRSTSCESLDDWGQGALVTVSS
VL: DIQLTQSPSFLSASVGDRVTITCRASQGISSYLAWYQQKPGKAPKLLIYAASTLQSGVPSRFSGTGYGTEFTLTISSLQPEDFATYYCQQLNNYPLTFGGGTKVEIK
For the molecule B4, the binding result is reported as “no binding (tested: 10 µg/ml)” in assay [1] and “binds” in assay [2].

B5: nCoV-12 mAb (antibody, V domains shown)
VH: QVQLVESGGGVVQPGRSLRLSCAGSGFTFSSFGLHWVRQAPGKGLEWLALISDEGRIKYYANSVKGRFFISRDNSKNTLYLQMNSLRGEDTAVYYCARDVKGHIVVMTSLDYWGQGALVTVSS
VL: DVVMTQSPLSLPVTLGQPASISCRSSQSLVSSDGDTSLSWFQQRPGQSPRRLIYEVSNRDSGVPDRFSGSGSGTDFTLKISRVEAEDVGVYYCMQGTHWPPTFGQGTKVEIK
For the molecule B5, the binding result in assay [1] is on record as “no binding (tested: 0.8 µg/ml)”; in assay [2] it was “binds”.

B6: nCoV-17 mAb (antibody, V domains shown)
VH: QVQLVESGGGVVQPGRSLRLSCAASGFTFSSYAIHWVRQAPGKGLEWLAVISFDGRHKYYADSVKGRFTISRDNSKNTVYLQMNSLRVEDTAVYSCARDIRHLIVVVSDMDVWGQGTTVTVSS
VL: DVVMTQSPLSLPVTLGQPASISCRSSQSLVNSDGDTSLNWFQQRPGQSPRRLIYKVSNRDSGVPDRISGSGSGTDFTLKISRVEAEDVGVYYCMQGTHWPPTFGQGTKLEIK
In the case of B6, the binding result in assay [1] was “no binding (tested: 10 µg/ml)”; in assay [2], “binds”.

B7: nCoV-2 mAb (antibody, V domains shown)
VH: DVQLLESGGGLVQPGGSLRLSCAASGFSFSSYAMTWVRQAPGKGLEWVATMSASGDSTNDADSVKGRFTISRDNSKNTLFLQMNSLRPEDTAVYYCASPLRNYGDLLYWGQGTLVTVSS
VL: DIQMTQSPSTLSASVGDRVTITCRASQNIHRFLAWYQQKPGKAPKLLIYTASSLESGVPSRFSGSGFGTEFTLTISSLQPDDFATYYCQQYNSYSWTFGQGTKVEIK
B7: the figures for the binding result in assay [1] and in assay [2] were “no binding (tested: 10 µg/ml)” and “binds”, respectively.

B8: nCoV-5 mAb (antibody, V domains shown)
VH: QMQLVQSGPEMKKPGTSVKVSCKASGFTFSKTTLQWVRQARGQRPEWIGWIVLGSGNTNYAHYFQARVTITRDMSTSTAYMELSSLSSEDTAVYYCAAEMATIQNYYYYYGMDVWGQGTTVTVSS
VL: DIQMTQSPSSLSASVGDRVTITCRASQSINYYLNWYQQKPGKAPNLLIYAASSLPGGVPSRFSGSGSGTDFTLTITSLQPEDFATYFCQQSYSTPPTFGQGTKLEIK
With B8, the binding result is recorded as “no binding (tested: 1 µg/ml)” in assay [1] and “binds” in assay [2].

B9: nCoV-4 mAb (antibody, V domains shown)
VH: QVQLVESGGGVVQPGRSLRLSCEASGFTLRTSSLHWVRQAPGKGLEWVAVISNDGATKFYADAVKGRFTISRDNSNNKIYLQLNGLKPEDTAVYYCARETRHYSHGLNWFDPWGQGTLVNVSS
VL: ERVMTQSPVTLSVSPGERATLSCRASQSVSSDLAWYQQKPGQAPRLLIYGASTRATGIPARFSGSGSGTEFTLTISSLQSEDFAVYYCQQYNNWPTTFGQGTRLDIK
B9: the binding result in assay [1] is “no binding (tested: 10 µg/ml)”.

B10: nCoV-13 mAb (antibody, V domains shown)
VH: EVQLVESGGGLVKPGGSLRLSCAASGFTFSNYNMNWVRQAPGKGLEWVSSIGSSSTYIYSADSVKGRFTISRDNAMNSLFLQMKSLRAEDTAVYYCARGFERYYFDSWGQGTLVTVSS
VL: QSVLTQPPSASGTPGQRVTISCSGSTSNIGTNVVNWYQQLPGTAPKLLIYSNNQRPSWVPDRFSGSKSGTSASLAISGLQSEDEADYYCVAWDDILNAVVFAGGTKLTVL
B10: the binding result in assay [1] is given as “no binding (tested: 7 µg/ml)”; in assay [2], “binds”.

B11: nCoV-7 mAb (antibody, V domains shown)
VH: QEQVVESGGGVVQPGKSLRLSCAASGFSLNDFAIHWVRQAPGKRLEWVAIISYDGRVKFYADSVKGRFTISRDSSVHLQMDSLRPEDTGLYYCARDSSWQSTGWPINWFDRWGRGTLVTVSS
VL: EIVLTQSPATLSLSPGQRATLSCRASQSVLSSLAWYQHKPGQAPRLLIYDASSRATGVPARFSGSGSETDFTLTISSLEPEDFAVYYCQQRSNWPPTFGQGTKVEIK
Consider B11, for which the figures for the binding result in assay [1] and in assay [2] were “no binding (tested: 2 µg/ml)” and “binds”, respectively.

B12: nCoV-9 mAb (antibody, V domains shown)
VH: QVLLVESGGGVVQPGMSLRLSCAASGFTFSSYAMHWVRQAPGKGLEWVAVISYDGSTKFYADSVRGRFPISRDNSKNTVYLQMNSLRPEDTAVYYCATVSVEGYTSGWYLGTLDFWGQGTPVTVSS
VL: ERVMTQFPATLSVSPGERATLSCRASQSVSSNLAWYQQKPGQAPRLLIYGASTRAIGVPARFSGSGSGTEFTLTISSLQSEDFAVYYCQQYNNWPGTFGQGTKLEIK
With B12, the figures for the binding result in assay [1] and in assay [2] were “no binding (tested: 8.5 µg/ml)” and “binds”, respectively.

B13: nCoV-3 mAb (antibody, V domains shown)
VH: EVQLLESGGGLVQPGGSLRLSCTASGFTFASYAMTWVRQAPGKGLEWVSTISGGGGDTYSADSVKGRFTISRDNSKSTLYLQMNSLRAADTALYYCARLESATQPLGYYFYGMDVWGQGTTVTVSS
VL: SYELTQPPSVSVSPGQTARITCSGDALPKQYAFWYQQRPGQAPVLVISKDSERPSGIPERFSGSSSGTTVTLTISGVQAEDEADYYCHSADISATSWVFGGGTKLTVV
B13: the binding result in assay [1] is “no binding (tested: 10 µg/ml)”; in assay [2] it was “binds”.

B14: nCoV-11 mAb (antibody, V domains shown)
VH: LVQLVESGGGVVQPGRSLRLSCAGSGFTFSSYGMHWVRQTPGKGLEWVAVISFDGRNKFYADPVKGRFTISRDNSKNTVFLELDSLTTEDTAFYYCARDDNLDRHWPLRLGGYWGQGTLVTVSS
VL: EIVMTQSPLSLPVTLGQPASISCRSSQDLLYNDGGTDLNWFQQRPGQSPRRLIYRVSNRDSGVPDRFSGSGSGSDFTLKISRVEAEDVGIYYCMQGAHWPPTFGPGTKVEIK
B14: the binding result in assay [1] is “no binding (tested: 10 µg/ml)”; in assay [2] it was “binds”.

B15: nCoV-15 mAb (antibody, V domains shown)
VH: EVQLVESGGGLVTPGRSLRLSCTASGFTFGDYALSWFRQAPGKGLEWVAFIRSKAYGGTTEYAASVKGRFTISRDDSQIIVYLQMDSLKTEDTAVYYCSWIHRIVSWGQGTLVTVSS
VL: DIQMTQSPSSLSASEGDRVTITCQASQDISIYLNWFQQKPGKAPKLLIYEASNLKTGVPSRFSGSGSGTDFTFTISSLQPEDIATYYCQQYDNLPYTFGQGTKLEIK
For B15, the binding result is “no binding (tested: 0.8 µg/ml)” in assay [1] and “binds” in assay [2].
